Measured values from US6146862A.

Substrate: NC(=O)C1=CN([C@@H]2O[C@H](COP(=O)(O)OP(=O)(O)OC[C@H]3O[C@@H](n4cnc5c(N)ncnc54)[C@H](O)[C@@H]3O)[C@@H](O)[C@H]2O)C=CC1
Assay: purified protein, by the assay type
Details: other: recombinant enzyme purified from E. coli JM109/pSDE1, assay 50 mM Tris-HCl pH 8.5, 0.06 mM DCIP, 30° C.

B1: Bacillus stearothermophilus UK-563 thermostable diaphorase, recombinant (E. coli JM109/pSDE1), SEQ ID No.1 (Geobacillus stearothermophilus) (protein)
chain: MTNVLYITAHPHDDTQSYSMAVGKAFIDTYKQVHPDHEVIHLDLYKEYIPEIDVDVFSGWGKLRSGKSFEELSDEEKAKVGRMNELCEQFISADKYVFVTPMWNFSFPPVLKAYIDAVAVAGKTFKYTEQGPVGLLTDKKALHIQARGGFYSEGPAAEMEMGHRYLSVIMQFFGVPSFEGLFVEGHAAVPEKAEEIKANAIARAKDLAHTF
Km: 500 µM
